Measured values as given in paper PMC5861120, “Architecture of the Saccharomyces cerevisiae NuA4/TIP60 complex” (Nature Communications, 2018).

T1: Purified native TINTIN (Eaf5-Eaf7-Eaf3) (S. cerevisiae, UniProt P39995 1-279; P53911 1-425; Q12432 1-401)
T1 construct: Eaf5, S. cerevisiae; Eaf7, S. cerevisiae; Eaf3, S. cerevisiae; The pull-down blots used anti-TAP and anti-Eaf3, so one subunit probably carries a TAP tag or its remnant; also called TINTIN subcomplex; source: purified native TINTIN; copies: + +
T1 sequence (looked up) 1: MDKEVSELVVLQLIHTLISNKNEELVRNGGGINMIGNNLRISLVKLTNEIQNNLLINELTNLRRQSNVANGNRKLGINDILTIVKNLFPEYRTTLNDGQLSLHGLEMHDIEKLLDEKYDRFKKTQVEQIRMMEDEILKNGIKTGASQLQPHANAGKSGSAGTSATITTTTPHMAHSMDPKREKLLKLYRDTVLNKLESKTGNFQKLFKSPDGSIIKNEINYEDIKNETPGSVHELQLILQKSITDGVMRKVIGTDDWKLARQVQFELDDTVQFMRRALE
T1 sequence (looked up) 2: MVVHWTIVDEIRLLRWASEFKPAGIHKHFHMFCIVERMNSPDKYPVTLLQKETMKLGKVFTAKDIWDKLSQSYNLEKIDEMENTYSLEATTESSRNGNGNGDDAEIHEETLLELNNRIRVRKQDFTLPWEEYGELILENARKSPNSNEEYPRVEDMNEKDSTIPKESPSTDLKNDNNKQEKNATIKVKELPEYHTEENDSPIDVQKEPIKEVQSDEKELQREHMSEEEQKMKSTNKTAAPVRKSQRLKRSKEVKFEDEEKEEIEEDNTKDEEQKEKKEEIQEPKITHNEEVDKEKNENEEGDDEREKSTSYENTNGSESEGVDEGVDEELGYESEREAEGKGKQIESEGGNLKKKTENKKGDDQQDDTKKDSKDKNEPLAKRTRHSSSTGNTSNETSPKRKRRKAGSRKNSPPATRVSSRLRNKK
T1 sequence (looked up) 3: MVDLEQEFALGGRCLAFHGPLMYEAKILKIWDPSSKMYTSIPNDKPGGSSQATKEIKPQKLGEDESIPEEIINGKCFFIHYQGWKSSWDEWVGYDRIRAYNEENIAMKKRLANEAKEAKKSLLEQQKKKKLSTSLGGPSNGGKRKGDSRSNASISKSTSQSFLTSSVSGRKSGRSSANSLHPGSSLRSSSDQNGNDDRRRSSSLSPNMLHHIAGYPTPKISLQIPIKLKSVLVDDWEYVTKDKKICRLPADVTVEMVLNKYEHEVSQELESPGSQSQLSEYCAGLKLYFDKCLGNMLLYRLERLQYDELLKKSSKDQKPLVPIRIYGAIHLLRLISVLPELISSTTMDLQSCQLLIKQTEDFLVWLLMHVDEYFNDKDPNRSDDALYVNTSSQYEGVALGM

T2: Recombinant His-tagged Tra1 (3200–3744) (S. cerevisiae, UniProt P38811 3200-3744)
T2 construct: Tra1, S. cerevisiae, residues 3200–3744 (FRB-PI3K-FATC); also called recombinant Tra1 C-terminus (FRB-PI3K-FATC); source: recombinant, bacterial culture, purified (Ni-NTA, eluted with imidazole)
T2 sequence (looked up): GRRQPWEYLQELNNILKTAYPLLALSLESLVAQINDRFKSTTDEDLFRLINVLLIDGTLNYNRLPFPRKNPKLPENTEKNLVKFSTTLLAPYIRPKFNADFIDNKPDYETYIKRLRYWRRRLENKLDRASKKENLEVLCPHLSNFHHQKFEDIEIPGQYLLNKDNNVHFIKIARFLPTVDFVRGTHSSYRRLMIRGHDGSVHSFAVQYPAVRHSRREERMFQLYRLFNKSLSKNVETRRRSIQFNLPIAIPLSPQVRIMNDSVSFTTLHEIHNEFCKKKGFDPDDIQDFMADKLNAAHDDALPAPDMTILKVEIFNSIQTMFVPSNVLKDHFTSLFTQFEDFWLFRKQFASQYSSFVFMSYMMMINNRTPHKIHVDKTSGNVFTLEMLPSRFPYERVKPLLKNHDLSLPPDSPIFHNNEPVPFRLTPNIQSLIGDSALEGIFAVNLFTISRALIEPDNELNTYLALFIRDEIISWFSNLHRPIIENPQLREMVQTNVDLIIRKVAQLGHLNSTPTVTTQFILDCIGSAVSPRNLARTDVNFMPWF

B1: GST-tagged Eaf1 (1–530) (domain or fragment, S. cerevisiae, UniProt Q06337 1-530, looked up)
chain: MSSRPSSAVPNSASLSEDQSSDRSKFPKADDLIDERDRKLTELYCVSRLNQLLELTDENKLRKEIDAFLKKNDIRRGIRFDEASLPKLLHTAATPITKKKLKDVNLINVPNQRLSDSKMSRELPENSENVSVKSESHFVPSHDNSIRENMMDSLRPAEKTGGMWNKRPLESTMGGEEERHEKRQKMQSQSLESSNNSEMASLPISPRPPVPNALAHYTYYENIEYPPADPTEVQPAVKFKDPLIKNIMAKEIDTSDHYNENNVDALETVFLLMNDYIPSKIPQALPLAELKYMSQTLPLINLIPRAHKALTTNIINNALNEARITVVGSRIEELRRLGLWSLRQPKRFIDPWKQHNTHQNILLEEAKWMQADFKEGHKYKVAICTAMAQAIKDYWTYGEICCVKRKTLLPGKENKLSDDGRISEKSGRPSDTSRNDSDISIAGKDDIGIIANVDDITEKESAAANDNDENGKNEAGAKSDFDFADGLLSQEGAHDQIISSIDTKLLLKKPSSSSEVVLIQHEVAASSALI
notes: also called Eaf1 N-terminal half; N-terminal portion of Eaf1; source: recombinant, bacterial culture, held on glutathione sepharose beads
B2: GST-tagged Eaf1 (536–982) (domain or fragment, S. cerevisiae, UniProt Q06337 536-982, looked up)
chain: KKELAPPFKLSIFVDELNTFEKTLIQDLPLYNGINEERPKKDDSLPFIPISKSVVSLDDNGFYKLLERQLIDEEPSISQLSKRRGMFYGNRRNHYLRPPAVPSLRYLQNRTPTIWLSEDDQELVKNINTYGYNWELISAHMTHRLTYSYLSNIERRTPWQCFERFVQLNERFNFSDLKGPRAHSAQQWLIEAHKFQQRQNRRISPLGVNTESIQRGHRRLRWASMFEAIRKCMKKRENTPRPNPTQPRKPLDCKNMKVPTPAEMSLLKAQRDEALRRDIQLRRTVKNRLQQRQQQSQQAHSSRAQSPIPSNGKSSSNLARNGQASAPRPNQKQYTEQDIIESYSRKLLEQKPDIGPEMALKAAKNYYRTLREQQQQLKQHQIQQQRQQLQEESSHVQQLQQLQPGSQAPPPKSSPSQSSLSNISNINSAPRIKSPTPQEILQRFQKQ
notes: also called Eaf1 C-terminal half; C-terminal region of Eaf1; source: recombinant, bacterial culture, held on glutathione sepharose beads

Key:
[1] = biological target: T1, Purified native TINTIN (Eaf5-Eaf7-Eaf3); test: pull-down; 300–600 ng GST-tagged Eaf1 fragments immobilised on glutathione sepharose, incubated with purified native TINTIN or His-tagged Tra1 (3200–3744) for 3–4 h at 4 °C; binding buffer 25 mM HEPES pH 7.5, 100 mM NaCl, 10% glycerol, 0.1% Tween-20; western blotting (anti-TAP, anti-Eaf3, anti-His); settings: both partners purified
[2] = biological target: T2, Recombinant His-tagged Tra1 (3200–3744); test: as above; settings: both partners purified

Row | binding result [1] | binding result [2] | Binder
1 | binds |  | B1
2 |  | binds | B2
